This data set deals with the molecule itself. Kind of data set: DEER (pulse EPR) inter-spin distance measurement; single-site MTSSL-labelled RocCOR, 50-100 uM protein, frozen at 50 K, X band; 150 mM NaCl, 30 mM Tris/HCl, 5 mM MgCl2, pH 7.5, 5% glycerol; apo, 1 mM GppNHp, GDP-AlFx (1 mM GDP, 1 mM AlCl3, 10 mM NaF) or 1 mM GDP; distances between the two symmetry-related labels of the dimer.

B1: C. tepidum RocCOR (AA 412-946) C600R1 + Y558A (domain or fragment, Chlorobium tepidum, UniProt Q8KC98 412-946, looked up)
chain: DNPLESPPPEIVKQGKEAVRQYFQSIEEARSKGEALVHLQEIKVHLIGDGMAGKTSLLKQLIGETFDPKESQTHGLNVVTKQAPNIKGLENDDELKECLFHFWDFGGQEIMHASHQFFMTRSSVYMLLLDSRTDSNKHYWLRHIEKAGGKSPVIVVMNKIDENPSYNIEQKKINERFPAIENRFHRISCKNGDGVESIAKSLKSAVLHPDSIYGTPLAPSWIKVKEKLVEATTAQRYLNRTEVEKICNDSGITDPGERKTLLGYLNNLGIVLYFEALDLSEIYVLDPHWVTIGVYRIINSSKTKNGHLNTSALGYILNEEQIRCDEYDPAKNNKFTYTLLEQRYLLDIMKQFELCYDEGKGLFIIPSNLPTQIDNEPEITEGEPLRFIMKYDYLPSTIIPRLMIAMQHQILDRMQWRYGMVLKSQDHEGALAKVVAETKDSTITIAIQGEPRCKREYLSIIWYEIKKINANFTNLDVKEFIPLPGHPDELVEYKELLGLEKMGRDEYVSGKLEKVFSVSKMLDSVISKEERNKER
modifications: MTSSL spin label on the native cysteine at 600 (R1 side chain)
notes: Roco protein of Chlorobium tepidum, RocCOR tandem, AA 412-946; native Cys600 used for labelling; Y558 corresponds to Arg1441 of human LRRK2
Consider B1, for which the binding result is listed as “binds”.

B2: C. tepidum RocCOR (AA 412-946) C600R1 + L487A (domain or fragment, Chlorobium tepidum, UniProt Q8KC98 412-946, looked up)
chain: DNPLESPPPEIVKQGKEAVRQYFQSIEEARSKGEALVHLQEIKVHLIGDGMAGKTSLLKQLIGETFDPKESQTHGANVVTKQAPNIKGLENDDELKECLFHFWDFGGQEIMHASHQFFMTRSSVYMLLLDSRTDSNKHYWLRHIEKYGGKSPVIVVMNKIDENPSYNIEQKKINERFPAIENRFHRISCKNGDGVESIAKSLKSAVLHPDSIYGTPLAPSWIKVKEKLVEATTAQRYLNRTEVEKICNDSGITDPGERKTLLGYLNNLGIVLYFEALDLSEIYVLDPHWVTIGVYRIINSSKTKNGHLNTSALGYILNEEQIRCDEYDPAKNNKFTYTLLEQRYLLDIMKQFELCYDEGKGLFIIPSNLPTQIDNEPEITEGEPLRFIMKYDYLPSTIIPRLMIAMQHQILDRMQWRYGMVLKSQDHEGALAKVVAETKDSTITIAIQGEPRCKREYLSIIWYEIKKINANFTNLDVKEFIPLPGHPDELVEYKELLGLEKMGRDEYVSGKLEKVFSVSKMLDSVISKEERNKER
modifications: MTSSL spin label on the native cysteine at 600 (R1 side chain)
notes: Roco protein of Chlorobium tepidum, RocCOR tandem, AA 412-946; native Cys600 used for labelling; L487 corresponds to Ile1371 of human LRRK2
B2: the binding result was “binds”.

B3: C. tepidum RocCOR (AA 412-946) C600R1, spin-labelled at the native cysteine 600 in the Roc domain (domain or fragment, Chlorobium tepidum, UniProt Q8KC98 412-946, looked up)
chain: DNPLESPPPEIVKQGKEAVRQYFQSIEEARSKGEALVHLQEIKVHLIGDGMAGKTSLLKQLIGETFDPKESQTHGLNVVTKQAPNIKGLENDDELKECLFHFWDFGGQEIMHASHQFFMTRSSVYMLLLDSRTDSNKHYWLRHIEKYGGKSPVIVVMNKIDENPSYNIEQKKINERFPAIENRFHRISCKNGDGVESIAKSLKSAVLHPDSIYGTPLAPSWIKVKEKLVEATTAQRYLNRTEVEKICNDSGITDPGERKTLLGYLNNLGIVLYFEALDLSEIYVLDPHWVTIGVYRIINSSKTKNGHLNTSALGYILNEEQIRCDEYDPAKNNKFTYTLLEQRYLLDIMKQFELCYDEGKGLFIIPSNLPTQIDNEPEITEGEPLRFIMKYDYLPSTIIPRLMIAMQHQILDRMQWRYGMVLKSQDHEGALAKVVAETKDSTITIAIQGEPRCKREYLSIIWYEIKKINANFTNLDVKEFIPLPGHPDELVEYKELLGLEKMGRDEYVSGKLEKVFSVSKMLDSVISKEERNKER
modifications: MTSSL spin label on the native cysteine at 600 (R1 side chain)
notes: Roco protein of Chlorobium tepidum, RocCOR tandem, AA 412-946; native Cys600 used for labelling; Forms a homodimer; the row is the protomer with itself; also called C600R1^Roc
B3: the binding result is listed as “binds”.

The values are drawn from publication PMC4721548, “Conformational heterogeneity of the Roc domains in C. tepidum Roc–COR and implications for human LRRK2 Parkinson mutations” (Bioscience Reports, 2015).
